Data taken from article PMC4244197 (Molecular Biology of the Cell, 2014).

Target: T1, GST-17NAnk (GST-tagged N-terminal cytosolic domain of zDHHC17, amino acids 11-305) (mouse, UniProt Q80TN5-1 11-305)
T1 sequence (looked up): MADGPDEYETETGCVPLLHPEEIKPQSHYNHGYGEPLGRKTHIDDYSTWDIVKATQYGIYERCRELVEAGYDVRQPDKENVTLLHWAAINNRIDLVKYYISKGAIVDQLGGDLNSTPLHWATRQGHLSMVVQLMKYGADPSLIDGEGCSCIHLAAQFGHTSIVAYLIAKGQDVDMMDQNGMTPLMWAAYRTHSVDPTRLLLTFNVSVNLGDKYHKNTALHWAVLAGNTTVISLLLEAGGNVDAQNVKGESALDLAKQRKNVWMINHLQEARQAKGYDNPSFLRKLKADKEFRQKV
Test: pull-down

B1: Myc-tagged CSP, palmitoylated (p) (natural protein, UniProt Q29455 1-198, looked up)
chain: MADQRQRSLSTSGESLYHVLGLDKNATSDDIKKSYRKLALKYHPDKNPDNPEAADKFKEINNAHAILTDATKRNIYDKYGSLGLYVAEQFGEENVNTYFVLSSWWAKALFIFCGLLTCCYCCCCLCCCFNCCCGKCKPKAPEGEETEFYVSPEDLEAQLQSDEREAADTPIVIQPASATETTQLTADSHPSYHTDGFN
modifications: palmitoylated (S-acylated) cysteines, positions not given
Question: B1 was tested. Which “fold lower binding than nonpalmitoylated Myc-CSP” value did it give?
Answer: 6 fold
